± gives the uncertainty stated by the source.
Test: protein stability index of a GFP-peptide fusion (yeast GPS) (PSI 1-4); higher = more stable; sorted into four equal gates, so the index is relative within each strain
Outline: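 Yeast carrying a pooled library were grown to mid-log phase in leucine-free medium. Each library plasmid expresses Cherry and has a tiled 17-residue yeast protein peptide fused downstream of GFP. Cells were sorted into four equal gates by GFP/Cherry ratio, and plasmids from each gate were PCR-amplified, Illumina-sequenced and assigned to strains by barcode. Summing, across gates, the read frequency times the gate number gave each peptide's protein stability index.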

| Sequence | protein stability index (doa10∆) | protein stability index (pdr5∆) | protein stability index (san1∆) | protein stability index (ubr1∆) |
| --- | --- | --- | --- | --- |
| ERSICALGEFADWDPES [YML031W/NDC1] | 3.5 ± 0.14 | 3.53 ± 0.092 | 3.28 ± 0.088 | 3.27 ± 0.064 |
| LKSTKHSISEAENMLEE [SMC4] | 3.06 ± 0.081 | 2.87 ± 0.12 | 3.06 ± 0.077 | 3.11 ± 0.05 |
| LILSGDTTANNGKVQYF [YJL039C/NUP192] | 2.89 ± 0.091 | 2.52 ± 0.086 | 2.9 ± 0.09 | 2.95 ± 0.064 |
| AELKLAGEFGLKNKKEI [RPS9A] | 3.08 ± 0.11 | 3.21 ± 0.15 | 3.2 ± 0.18 | 3.21 ± 0.12 |
| SESQLNSTLKKVESQET [YCS4] | 2.62 ± 0.18 | 3.4 ± 0.22 | 3.31 ± 0.1 | 3.04 ± 0.29 |
| TGNTTSKSAFSFGTANT [YOR098C/NUP1] | 2.5 ± 0.064 | 2.72 ± 0.058 | 1.95 ± 0.076 | 2.75 ± 0.056 |
| ATAAESDVAKQLAALGY [RPL16A] | 2.98 ± 0.042 | 2.91 ± 0.056 | 3.18 ± 0.045 | 3.2 ± 0.048 |
| LARRTDAPFNKVVLKAL [RPL18A] | 1.22 ± 0.057 | 1.28 ± 0.048 | 1.18 ± 0.12 | 1.45 ± 0.068 |
| SMKANTSTNPNGLGTSH [ARP7] | 3.22 ± 0.093 | 3.41 ± 0.098 | 2.95 ± 0.078 | 3.27 ± 0.075 |
| KRTRLESLKNLNESRSQ [SMC3] | 2.53 ± 0.092 | 2.4 ± 0.075 | 2.61 ± 0.071 | 2.82 ± 0.13 |
| LQALKANDEEAYIKLLD [SNF2] | 2.91 ± 0.093 | 3.29 ± 0.1 | 3.36 ± 0.11 | 2.77 ± 0.2 |
| KLTVCFDDILKVGAEMM [MED2] | 1.97 ± 0.07 | 1.95 ± 0.06 | 1.89 ± 0.11 | 2 ± 0.041 |
| LVESVDRFKPNLDIAKD [MED4] | 3.37 ± 0.29 | 3.33 ± 0.17 | 3.15 ± 0.072 | 2.9 ± 0.15 |
| ASELANPYSSYVSQIRK [YAR002W/NUP60] | 3.22 ± 0.17 | 2.9 ± 0.13 | 2.31 ± 0.17 | 1.92 ± 0.073 |
| MHSYFIFKDLVTVFLFM [COB] | 1.47 ± 0.04 | 1.32 ± 0.037 | 1.36 ± 0.056 | 1.34 ± 0.025 |
| FEVLAPKWERVFLFDIE [RRI2] | 3.41 ± 0.12 | 2.72 ± 0.085 | 2.92 ± 0.1 | 2.52 ± 0.068 |
| EKENRFEIVDREKNSLE [SMC4] | 2.63 ± 0.09 | 2.93 ± 0.11 | 3.1 ± 0.1 | 3.3 ± 0.085 |
| IGVVSLTNGVTEHVRQN [RRP6] | 3.29 ± 0.14 | 3.42 ± 0.11 | 3.32 ± 0.099 | 3.33 ± 0.063 |
| SIQMEFMLRKQDPKTLV [SSN2] | 1.73 ± 0.066 | 2 ± 0.049 | 1.82 ± 0.08 | 2.05 ± 0.045 |
| TRVNAQLESYEYMVQYI [RRI1] | 3.2 ± 0.059 | 3.23 ± 0.073 | 3.42 ± 0.058 | 3.22 ± 0.076 |
| QTPAEKHAFMGTLKKDL [RPL3] | 3.08 ± 0.17 | 3.21 ± 0.062 | 2.96 ± 0.11 | 2.96 ± 0.093 |
| TEISGLKNVNKRAFENF [SMC3] | 3.28 ± 0.079 | 3.09 ± 0.097 | 2.7 ± 0.096 | 2.96 ± 0.057 |
| SQVLDLAKKIAPGKVEL [SMC2] |  | 3.28 ± 0.19 |  | 2.84 ± 0.2 |
| TTDANGSKENYQELGSL [MED2] | 2.86 ± 0.097 | 3.09 ± 0.081 | 3.15 ± 0.049 | 2.9 ± 0.075 |
| LLTLTNAANVPVENIWA [RPP1A] | 2.12 ± 0.081 | 2.56 ± 0.13 | 2.48 ± 0.11 | 2.55 ± 0.094 |
| SKRWAQRTLSKSFYSTA [CYT1] | 1.69 ± 0.052 | 2.32 ± 0.054 | 2.19 ± 0.063 | 2.22 ± 0.06 |
| NIYNFSPSERIEPLEIN [BRR2] | 2.39 ± 0.064 | 2.78 ± 0.051 | 1.93 ± 0.056 | 2.2 ± 0.05 |

| Sequence | protein stability index (doa10∆) | protein stability index (pdr5∆) | protein stability index (san1∆) | protein stability index (ubr1∆) |
| --- | --- | --- | --- | --- |
| RNVEQKLNELDELILEA [NNF1] | 3.3 ± 0.062 | 3.29 ± 0.059 | 3.22 ± 0.039 | 3.4 ± 0.046 |
| TELTHHLLPRNEWIKAQ [QCR7] | 2.37 ± 0.068 | 2.16 ± 0.073 | 2.04 ± 0.12 | 1.85 ± 0.046 |
| QIFVRGSQIKFIVVPDL [SMD3] | 1.8 ± 0.071 | 2.35 ± 0.06 | 2.05 ± 0.064 | 2.02 ± 0.066 |
| GIDPQDLKKLNLNVYIQ [CDC53] | 1.68 ± 0.14 | 1.7 ± 0.12 | 1.42 ± 0.1 | 1.19 ± 0.083 |
| TLIVNTDVEKSDPAAKK [SRP21] |  | 3.13 ± 0.3 |  | 3.7 ± 0.16 |
| ESAFENLMGNRNNHNSN [SNF12] |  |  |  | 3.44 ± 0.21 |
| KTCQWYSEHLKPYDINV [DIS3] | 2.78 ± 0.28 | 2.95 ± 0.14 | 2.74 ± 0.094 | 2.84 ± 0.072 |
| NANAGLFNKPPSTNAQN [YOR098C/NUP1] | 3.1 ± 0.046 | 3.17 ± 0.046 | 3.06 ± 0.038 | 3.16 ± 0.034 |
| DNPLRQIPHFNNKILEK [BRR2] | 3.08 ± 0.092 | 3.1 ± 0.084 | 3.08 ± 0.086 | 3.19 ± 0.08 |
| GLVDENKVEAFKSLYTF [YAR002W/NUP60] | 3.01 ± 0.089 | 2.65 ± 0.08 | 3.39 ± 0.054 | 2.83 ± 0.043 |
| YLERIELSFYILYSFKL [YML103C/NUP188] | 1.49 ± 0.057 | 1.37 ± 0.044 | 1.2 ± 0.08 | 1.59 ± 0.037 |
| IDWASPEYGRIIASASY [YGL100W/SEH1] | 2.8 ± 0.064 | 3.16 ± 0.053 | 3.09 ± 0.054 | 2.71 ± 0.055 |
| VAIGNTYGFLTPNLWAE [RPS2] | 2.26 ± 0.073 | 2.49 ± 0.054 | 2.36 ± 0.089 | 2.43 ± 0.04 |
| LPDGKNGNLEEEFAYVD [MED6] | 3.41 ± 0.066 | 3.44 ± 0.12 | 3.42 ± 0.052 | 3.32 ± 0.074 |
| KDYHTLANNVESKLRDD [RPS18A] | 3.29 ± 0.14 | 3.48 ± 0.15 | 3.39 ± 0.11 | 3.33 ± 0.088 |
| FIFQIIEITNSNDLCSQ [SRB8] | 1.39 ± 0.059 | 1.62 ± 0.049 | 1.71 ± 0.1 | 1.21 ± 0.075 |
| PNSERETDHANTENNDP [IRR1] | 2.69 ± 0.073 | 2.87 ± 0.052 | 2.73 ± 0.045 | 2.88 ± 0.044 |
| VPYVVTHDGRTIRYPDP [RPS4A] | 3.08 ± 0.1 | 3.16 ± 0.17 |  | 3.38 ± 0.19 |
| LPGKVNTKEEFAAAPND [SNF5] | 2.66 ± 0.084 | 2.91 ± 0.061 | 2.84 ± 0.058 | 2.85 ± 0.067 |
| VKKPQKSKTSTGKERSK [SNM1] | 3.15 ± 0.07 | 3.39 ± 0.085 | 3.549 ± 0.035 | 3.35 ± 0.062 |
| YALFLKALRRKIYINLA [SSN2] | 1.62 ± 0.092 | 1.31 ± 0.067 | 1.35 ± 0.12 | 1.47 ± 0.085 |
| IKSGVAKLESLLENSVD [MTW1] | 3.29 ± 0.098 | 3.4 ± 0.091 | 3.32 ± 0.055 | 3.4 ± 0.075 |
| PQALRVLRLKPGRKYTT [RPL16A] | 2.97 ± 0.044 | 3.05 ± 0.046 | 3.13 ± 0.046 | 3.21 ± 0.05 |
| GQQKIILSKKWGFTNLD [RPL10] | 2.68 ± 0.22 |  |  | 2.29 ± 0.21 |
| PYGSFHQQQLQQPHYIQ [DSN1] | 2.76 ± 0.063 | 2.98 ± 0.052 | 2.92 ± 0.044 | 3.1 ± 0.048 |
| WQYIVIDEAHRIKNEQS [ISW2] | 1.48 ± 0.075 | 1.64 ± 0.08 | 1.23 ± 0.11 | 2.24 ± 0.071 |

Source: the supplement of paper PMC9732359
